Assay results taken from a protein production outcome set (Wang et al. 2014).

Experiment: label from the status in PepcDB records

| Sequence | protein production |
| --- | --- |
| MPTLGFRFRAYTDEQTLRALKAQLKSACKIYNTLRWADIYFYQRDGKGLTRTELRQLALDLRKQDDEYKQLYSQVVQQVADRYYEAKKRFFEGLAHFPKEKKPHKHYSLVYPQYGWKILQVREIRKGSKKKLITLKLSNLGTFKVIVHRDFPLDKVKRVVVKLTRSERIYITFVVDHEFPKLPNTGKVVAIDVGVEKLIVTSDGEYFPNLRPYEKALWKVKHLHRELSRKKFLSHNWFKAKVKLARAYEYLKNLRTDLYMKLGKWFAEHYDVVVMEGIHVKQLIGKSLRSLRRRLSDVAFSELRDLIKYQLEKYGKKLILVNPAYTSKTCAKCGYVKEDLSLSDRVFVCPNCGWIADRDYNASLNILRGSGSERPLVWSSALYQYSGMAELLEHHHHHH | not failed |
| SYETSQHNLDAVEAVLSRLQKQTGEMAAYMVPVGYRALCVSQRESMQALRCSFVQGQSQPLLRGASSKVMLAYMPAARCEKILRYFGEDPTLDKWQSEFEKIRRHGYAVSTSEIDPGVSGISAPVMKGSKLIGAISVMAPAHRVESNKQRIILHVLQAARALPPER | not failed |
| YLKDLSLLISNDKQTILYAPTWKGNSVSKVKNDVFQIISDMNYLEEKIGSDYNVLIKVHPFLYSEASKVSELKGKLIPDFIDTNQLLSTVDILITDYSSIFFDFLVTDRPILFYMWDADDYNKQRGKYINNEDLPGPVLYNVRELVEAIGNIHQVKSEFQTNYEKNKVKFTNHDDGNVTKRVVEKIFK | failed |
| MENLKKYLEVAKIAALAGGQVLKENFGKVKKENIEEKGEKDFVSYVDKTSEERIKEVILKFFPDHEVVGEEMGAEGSGSEYRWFIDPLDGTKNYINGFPIFAVSVGLVKGEEPIVGAVYLPYFDKLYWGAKGLGAYVNGKRIKVKDNESLKHAGVVYGFPSRSRRDISIYLNIFKDVFYEVGSMRRPGAAAVDLCMVAEGIFDGMMEFEMKPWDITAGLVILKEAGGVYTLVGEPFGVSDIIAGNKALHDFMLQVAKKYMEVAV | not failed |
| MIIRIVQNIQRINKEGNAPLYISFYLGKEKVVIPCKLSVPTTKFDSKTGMLRGTNKEAKDINLIIERLKAKVNDILVKHRLKNLTLNKEAFMREYNNPSDFKSFHDFVASYMKTYSRRLEIGTFRHHKSCMRKFKEYCEGLQFHELTEDFLRDYLIYMKKTLCNADSTAQRNLSTIKIYVSAAIKKGYMENDPFKDFGVKRIKSNIDYLTEEELIKFISLYYDRRLPERLERTLGFFLFMCFTSLHISDARHVCLEQINNGILTYYRIKNRNCKPEAIKIPLSIPAFKIIEELQGKRKEGHLFTSLQCDQVVNRQIKEIASILEIKKKVSAKTGRHTFATIFLKKTKDVATLQKLLGHSNLKETMIYAHVLDESKQEGMQCFNSFAI | failed |
| MANSASPEQNQNHCSAINNSIPLMQGNLPTLTLSGKIRVTVTFFLFLLSATFNASFLLKLQKWTQKKEKGKKLSRMKLLLKHLTLANLLETLIVMPLDGMWNITVQWYAGELLCKVLSYLKLFSMYAPAFMMVVISLDRSLAITRPLALKSNSKVGQSMVGLAWILSSVFAGPQLYIFRMIHLADSSGQTKVFSQCVTHCSFSQWWHQAFYNFFTFSCLFIIPLFIMLICNAKIIFTLTRVLHQDPHELQLNQSKNNIPRARLKTLKMTVAFATSFTVCWTPYYVLGIWYWFDPEMLNRLSDPVNHFFFLFAFLNPCFDPLIYGYFSL | not failed |
| MAEERSLNGEATGQDDESFFDSDQQGDDGKSTELNQKIGDLESQNQELARDNDAINRKIESLTAEIEELRGAESKAKRKMGEMEREIDKSDEERKVLEAIASRASELETEVARLQHELITARTEGEEATAEAEKLRSEISQKGGGIEELEKEVAGLRTVKEENEKRMKELESKLGALEVKELDEKNKKFRAEEEMREKIDNKEKEVHDLKEKIKSLESDVAKGKTELQKWITEKMVVEDSLKDSEKKVVALESEIVELQKQLDDAEKMINGLKNVVEEPLNGIEFKSWSPNVTAVGSGGAVAAVAVAVAGAAVVCYIYHSRRV | failed |
| MSTSLTIRLVAEADWPALHALDQIIWTKKNTPAEIQPLSLAAYQEKMKDETIFVAISGQQLAGFIEVHPPTSLAAHQKQWLLSIGVSPDFQDQGIGGSLLSYIKDMAEISGIHKLSLRVMATNQEAIRFYEKHGFVQEAHFKEEFYINGHYCDDYQYAYFIEK | not failed |
| MDIKNSEYRFSPLVIGLHWLTVILIIAVYASMELRGLAPKGALRDAMKSLHYLLGLSVLVIVVIRIGVRIQAGVKPAIQPPMPRWQATLADGMHYALYSFMLAMPLLGWLTLSAAGKPIVLFGLPVPSLIGTDVALSRQLKDVHEALATLGYVLIGLHAMAALLHHYVMRDNTVVRMLPGRRP | not failed |
| MSSEEDYFDELEYDLADEVNEEKEDIQTKKLTTVNCQTEKFNPFEILPESIELFRTLALISPDRLSLSETAQILPKIVDLKRILQQQEIDFIKLLPFFNEIIPLIKSNIKLMHNFLISLYSRRFPELSSLIPSPLQYSKVISILENENYSKNESDELFFHLENKAKLTREQILVLTMSMKTSFKNKEPLDIKTRTQILEANSILENLWKLQEDIGQYIASKISIIAPNVCFLVGPEIAAQLIAHAGGVLEFSRIPSCNIASIGKNKHLSHELHTLESGVRQEGYLFASDMIQKFPVSVHKQMLRMLCAKVSLAARVDAGQKNGDRNTVLAHKWKAELSKKARKLSEAPSISETKALPIPEDQPKKKRAGRKFRKYKEKFRLSHVRQLQNRMEFGKQEQTVLDSYGEEVGLGMSNTSLQQAVGATSGSRRSAGNQAKLTKVMKHRISEANQQADEFLISLGHNTEQPNLSPEMVQMHKKQHTNPEEETNWFSGHG | failed |
| LDSELELPAGWEKIEDPVYGIYYVDHINRKTQYENPVLEAKRKKQLE | not failed |
| MIYLHAIDPIAFSLGPVQVHWYGLMYLAAFFSAWALGRSRILRGRLPGVDMDGFSDLLFYGMLGVVLGGRIGYMLFYAFETFLANPLILFKVWEGGMSFHGGLLGVLIACWLWARKHRLHFFDVMDFVAPLVPLGLGFGRLGNFVGGELWGKFTQAGWGVIFPHAPELADRLPAQIQAQYAAGALNQFARHPSQLYEAALEGVVMFVVLWTFSMKPRARYAVSGLFALLYGVFRFIVEFVRVPDAPIGYLAFNWLTMGQILSLPLVAVGLVLLAMSRRAPVLQPVLPVPAGVEAAK | failed |
| MDLKGWISKKSSNVSYEKIKYEFSNVKYSVDHGRLEILHGIKGILLPKTITVIMGPSGSGKTTLLNILSMKVTEGVEGDFLINDMSRMKNIKRHMGYVLQDDYFFSRLTVYETIEFTAKLKLDIRDKKKLNELVHSVLDIMSLTHVKDTIVGDAFIRGISGGQRKRLSIANEILSNPPLLLMDEPTSGLDSSSALSLVECIQRIAQTSNTTIISSLHQPSSQVFSKFDRLIAITNGYIIYHGKTTDLNKYLKKVGFICPYGWNVADYLMDILSNKKFEAILIDNYNKYLHFDSDVGYYMNVKAIDSKIIHDDYDSILEKTNQSISKNSQTNNKSSTNLSSINKSPILSTQENKTREHDILKFQAVELLISLQENKTPYIRQNFFLLIRGLKKIITDEITIIKVIDLVVILTLFGVLWLHTFKEETEEGIIDTIGAIFFILSYWTFYPAYLSLYSFPSEREVIAKERNMKTFQVSNYFLSKLLAEFIYFFMIIAFWILVTHLILYGTLKIGIYLSYAFITLLNALISSSLGYFISTLFDNFSKAVSFLSVVLLTMTLTNGFYVEISKLDVPFRYLQWLSYQTYSASVLAKIKFDDALIKCSPDNNSLPCKNNGFFPGEIIVQKRFATLHISISILILICFYSVIKTFTYVSLRWSQALKMK | failed |
| MPKIPITLITGFLGSGKTSFLSEYLNQTDHQGVALIINEIGQAALDQRILSVQYCGEKMLYLNAGCVCCNKRLDLVESLKATLNNYEWHGEILRRIIIETTGLANPAPILWTILSDTFLGVHFEIQSVVACVDALNAREHLTNNEAKEQIVFADSVLLTKTDLQNDSAALTKLKERIQALNPSAEIFDKRAIDYESLFSRKNRARNFMPLEHHHHHH | failed |
| MTEEQVQHWFDMFGSLGYIAGFLLPFIEAFIPILPIIVFIIVNVNAFGWFIGTVLAWAGTVAGSYIVFLFFRRLNNTKYMKKVQQRTSVQRLIHFIDRRGVIPIFILMCFPFTPSALVNIVASMSHIKAHAYLTVLIISKFIMIGLVGWLGNDITTLFSNPTRLITIVVVIIIVWFVGRKIEKHFMSSSEE | failed |
